From doi:10.1101/2022.03.10.483757 (bioRxiv, 2022)

Molecular target: the molecule itself
Assay: crystal structure

B1: His6-tagged SFPQ-276–535 L534I (domain or fragment, human, UniProt P23246 276-535, looked up)
chain: EGFKANLSLLRRPGEKTYTQRCRLFVGNLPADITEDEFKRLFAKYGEPGEVFINKGKGFGFIKLESRALAEIAKAELDDTPMRGRQLRVRFATHAAALSVRNLSPYVSNELLEEAFSQFGPIERAVVIVDDRGRSTGKGIVEFASKPAARKAFERCSEGVFLLTTTPRPVIVEPLEQLDDEDGLPEKLAQKNPMYQKERETPPRFAQHGTFEYEYSQRWKSLDEMEKQQREQVEKNMKDAKDKLESEMEDAYHEHQANIL
B1: binds.
